The values that follow come from PMC6610666, “E2F4 regulates transcriptional activation in mouse embryonic stem cells independently of the RB family” (Nature Communications, 2019).

The target of the assay is mouse CBP TAZ1 (residues 340-439) (mouse, UniProt P45481 340-439). Put plainly: ITC; MicroCal VP-ITC; E2F4 TAD (300 uM) titrated into TAZ1 (30 uM) at 25 C; 25 mM HEPES pH 7.0, 200 mM NaCl, 5% glycerol v/v; E2F4 concentration adjusted such that N was close to 1. The settings on record: both partners purified. For orientation: In ITC the heat of successive injections is recorded.
Sequence of mouse CBP TAZ1 (residues 340-439) (P45481 340-439): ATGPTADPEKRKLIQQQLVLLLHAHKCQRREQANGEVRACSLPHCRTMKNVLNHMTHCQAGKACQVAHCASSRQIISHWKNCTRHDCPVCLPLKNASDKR

B1: human E2F4 transactivation domain (residues 390-407) (domain or fragment, UniProt Q16254 390-407, looked up)
chain: HDYIYNLDESEGVCDLFD
notes: also called E2F4 TAD; E2F4 peptide; source: E. coli, purified (GST fusion, Superdex-75)
On to B1, for which the binding result is reported as “binds”.
